Publication PMC10546719

How the values were obtained:
[1] = molecular target: syndecan-1 (human (endogenous in Caco-2)) (UniProt P18827)
[2] = molecular target: syndecan-1 (human (endogenous in Caco-2)) (UniProt P18827); remark: listed apart in the source

Sequence of UniProt P18827 (P18827 23-310): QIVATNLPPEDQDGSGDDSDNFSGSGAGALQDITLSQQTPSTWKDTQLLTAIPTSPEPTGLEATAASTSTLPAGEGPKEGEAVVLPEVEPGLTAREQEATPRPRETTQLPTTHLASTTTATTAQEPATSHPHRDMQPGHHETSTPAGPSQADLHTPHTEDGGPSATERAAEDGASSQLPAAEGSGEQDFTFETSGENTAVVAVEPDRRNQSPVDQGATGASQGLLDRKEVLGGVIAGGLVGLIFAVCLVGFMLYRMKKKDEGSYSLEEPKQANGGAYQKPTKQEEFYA

**Q.** “recombinant Trichinella spiralis C-type lectin with GST tag (GST-rTsCTL) (natural protein)” was tested. Which reduction of the rTsCTL (10 µg/mL) promotion of larval invasion of Caco-2 cells by 2.5-20 mM β-xyloside [1] did it give?
**A.** 46.8%

**Q.** What about the inhibition of the rTsCTL (10 µg/mL) promotion of larval invasion of Caco-2 cells by 2.5-20 µM Stattic [2] of the same substance?
**A.** 49.3%
